According to paper PMC11813153, “Extended receptor repertoire of an adenovirus associated with human obesity” (PLOS Pathogens, 2025):

Experiments:
[1] = biological target: HAdV-D36 fiber knob domain (FK) (Human adenovirus type 36 (HAdV-D36), strain 275); experiment: crystal structure; fiber knobs crystallised alone or co-crystallised with 10 mM carbohydrate; HAdV-D36 FK: hanging drop, PEG 3,350, NH4Ac, 0.1 M Bis-Tris pH 5.5, 4 C
[2] = biological target: the molecule itself; experiment: as above

With “HAdV-D36 fiber knob domain (FK) (domain or fragment)” the stoichiometry N [1] was 3.

B1: HAdV-D37 fiber knob (FK) (domain or fragment)
chain: GYLVAWNPKYDTRTLWTTPDTSPNCTIAQDKDSKLTLVLTKCGSQILANVSLIVVAGKYHIINNKTNPKIKSFTIKLLFNKNGVLLDNSNLGKAYWNFRSGNSNVSTAYEKAIGFMPNLVAYPKPSNSKKYARDIVYGTIYLGGKPDQPAVIKTTFNQETGCEYSITFNFSWSKTYENVEFETTSFTFSYIAQE
notes: fiber protein of human adenovirus type 37 (HAdV-D37), knob domain; checked against GenBank ABK59080.1 (HAdV-D37 fiber); also called HAdV-D37 FK; HAdV-D37 wt FK; source: construct, expression and purification as described previously [100]
With B1 the “stoichiometry N” value [2] was 3.
